Reference: PMC1420302

Molecular target: SF3b1-NT-His6 (human) (UniProt O75533)
Sequence of UniProt O75533 (O75533 1-511): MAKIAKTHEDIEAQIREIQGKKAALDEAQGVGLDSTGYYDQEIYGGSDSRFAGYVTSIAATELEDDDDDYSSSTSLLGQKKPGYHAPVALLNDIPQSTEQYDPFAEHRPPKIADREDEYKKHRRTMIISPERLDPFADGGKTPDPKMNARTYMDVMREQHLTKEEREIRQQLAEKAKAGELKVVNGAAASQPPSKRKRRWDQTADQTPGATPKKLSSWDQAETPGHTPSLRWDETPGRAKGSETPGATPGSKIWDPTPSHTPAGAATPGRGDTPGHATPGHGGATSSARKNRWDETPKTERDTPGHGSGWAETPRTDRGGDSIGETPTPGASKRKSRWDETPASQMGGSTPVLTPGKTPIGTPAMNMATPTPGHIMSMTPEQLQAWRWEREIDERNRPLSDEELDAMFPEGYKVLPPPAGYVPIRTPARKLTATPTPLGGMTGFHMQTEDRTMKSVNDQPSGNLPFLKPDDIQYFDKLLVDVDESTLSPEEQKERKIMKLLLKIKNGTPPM

Substance | approximate Km of phosphorylation, from velocities of phosphate incorporation at 0.7 and 7 μM substrate [µM]
cyclin E/CDK2 (from UniProt P24864 1-410; P24941 1-298) (complex) | 3.51
GST-DYRK1A-ΔC (from UniProt Q63470 1-763) (enzyme) | 2.75
